In IntAct's records for PubMed 16284401:

B1: Kinase D-interacting substrate of 220 kDa (Rattus norvegicus (Rat)), Q9EQG6 (parent)
chain: MSVLISQSVINYVEEENIPALKALLEKCKDVDERNECGQTPLMLAAEQGNVEIVKELLKNGANCNLEDLDNWTALISASKEGHIHIVEELLKSGASLEHRDMGGWTALMWACYKGRTDVVELLLSHGANPSVTGLYSVYPIIWAAGRGHADIVHLLLQNGAKVNCSDKYGTTPLVWAARKGHLECVKHLLAMGADVDQEGANSMTALIVAVKGGYTQSVKEILKRNPNVNLTDKDGNTALMIASKEGHIEIVQDLLDAGTYVNIPDRSGDTVLIGAVRGGHVEIVRALLQKYADIDIRGQDNKTALYWAVEKGNATMVRDILQCNPDTEICTKDGETPLIKATKMRNIEVVELLLDKGAKVSAVDKKGDTPLHVAIRGRSRRLAELLLRNPKDGRLLYRPNKAGETPYNIDCSHQKSILTQIFGARHLSPTETDGDMLGYDLYSSALADILSEPTMQPPICVGLYAQWGSGKSFLLKKLEDEMKTFAGQQTEPLFQFSWLIVFLTLLLCGGLGLVFAFTVDTNLAIAISLSFLALIYIFFIVIYFGGRREGESWNWAWALSTRLARHIGYLELLFKLMFVNPPELPEQTTKALPVRFLFTDYNRLSSVGGETSLAEMIATLSDACEREFGFLATRLFRVFRTEESQGKKKWKKTCCLPSFVIFLFIVGCIIAGITLLAIFRVDPKHLTVNAILISIASVVGLAFVLNCRTWWQVLDSLLNSQRKRLHSAASKLHKLKSEGFMKVLKCEVELMARMAKTIDSFTQNQTRLVVIIDGLDACEQDKVLQMLDTVRVLFSKGPFIAIFASDPHIIIKAINQNLNSVLRDSNINGHDYMRNIVHLPVFLNSRGLSNARKFLVTSATNGDITCSDTTGTQEDTDRRVSQNSLGEMTKLGSKTALNRRDTYRRRQMQRTITRQMSFDLTKLLVTEDWFSDISPQTMRRLLNIVSVTGRLLRANQITFNWDRLASWINLTEQWPYRTSWLILYLEETEGLPDQMTLKTIYERISKNIPTTKDVEPLLEIDGDIRNFEVFLSSRTPVLVARDVKTFLPCTVNLDPKLREIIADVRAAREQINIGGLAYPPLPLHEGPPRPPSGYSQPASVCSSASFNGPFPGGVVSPQPHSSYYSGLSGPQHPFYNRPFFAPYLYTPRYYPGGSQHLISRSSVKTSLPRDQNNGLPCDSGFNKQRQAAVPATGSSLLLSSMTVDVVCEKLRQIEGLDQSMMPQYCTTIKKANINGRVLSQCNIDELKKEMAMNFGDWHLFRSMVLEMRSVESQVVPEDPRFLNENSSAPVPHGESARRSSHTELPLTELSSQTPYTLNFSFEELNTLGLDEGAPRHSNLSWQSQTRRTPSLSSLNSQDSSIEISKLTDKVQAEYRDAYREYIAQMSQLEGGTGSSTISGRSSPHSTYYIGQSSSGGSIHSTLEQERGKEGELKQEDGRKSFLMKRGDVIDYSSSGVSTNEASPLDPITEEDEKSDQSGSKLLPGKKSSERPSLFQTDLKLKGGGLRYQKLPSDEDESGTEESDNTPLLKDDKDKKAEGKAERVCKSPEHSAEPIRTFIKAKEYLSDALLDKKDSSDSGVRSNESSPNHSLHNEAADDSQLEKANLIELEDEGHSGKRGMPHSLSGLQDPIIARMSICSEDKKSPSECSLIASSPEESWPACQKAYNLNRTPSTVTLNNNTAPTNRANQNFDEIEGIRETSQVILRPGPSPNPTAVQNENLKSMAHKRSQRSSYTRLSKDASELHAASSESTGFGEERESIL
B2: Crk-like protein (Rattus norvegicus (Rat)), Q5U2U2 (parent)
chain: MSSARFDSSDRSAWYMGPVSRQEAQTRLQGQRHGMFLVRDSSTCPGDYVLSVSENSRVSHYIINSLPNRRFKIGDQEFDHLPALLEFYKIHYLDTTTLIEPAPRYPNPPMGSVSAPNLSTAEENLEYVRTLYDFPGNDAEDLPFKKGELLVIIEKPEEQWWSARNKDGRVGMIPVPYVEKLVRSSPHGKHGNRNSNSYGIPEPAHAYAQPQTTTPLPTVASTPGAAINPLPSTQNGPVFAKAIQKRVPCAYDKTALALEVGDIVKVTRMNINGQWEGEVNGRKGLFPFTHVKIFDPQNPDDNE

Variants of: B1
Details: with crkl_human CRKL

| Variant | effect of a mutation on the interaction |
| --- | --- |
| Y1095F | decreasing interaction |

Variants of: B1
Details: with crkl_rat Crkl, Q5U2U2

| Variant | effect of a mutation on the interaction |
| --- | --- |
| Y1095F | decreasing interaction |

Variants of: B2
Details: with kdis_rat Kidins220, Q9EQG6

| Variant | effect of a mutation on the interaction |
| --- | --- |
| R39N | decreasing interaction |
